In publication PMC2690590, “Functional recombinant MHC class II molecules and high-throughput peptide-binding assays” (Immunome Research, 2009):

How the values were obtained:
[1] = molecular target: T1, DR1 (DRA*0101/DRB1*0101) (Homo sapiens, UniProt P01903+P01911, A100R/D57E/F55L/F60I/F76Y/I96L/L162R/M171V/P40L/Q125E/R42F/V115G/Y59C); assay: Competitive peptide-HLA-DR1 binding assay, radioactive spun column; details: competition with 125I labelled (Y)HA306–318, spun column assay
[2] = molecular target: T1, DR1 (DRA*0101/DRB1*0101); assay: Scintillation proximity assay (SPA), competitive, DR1; type: binding; details: 30 nM DR1 α and β chain; 2 nM 125I labeled YHA306-318; refolding buffer pH 8; 24 h 18°C; streptavidin SPA beads

B1: Invariant Chain: a recombinant version of the extracellular part of human invariant chain (positions 73–208) (protein)
chain: QQQGRLDKLTVTSQNLQLENLRMKLPKPPKPVSKMRMATPLLMQALPMGALPQGPMQNATKYGNMTEDHVMHLLQNADPLKVYPPLKGSFPENLRHLKNTMETIDWKVFESWMHHWLLFEMSRHSLEQKPTDAPPK
binder to DR1 (in words) [1]: good binders | binder to DR1 (in words), SPA [2]: good binders
